Data from patent US8304388B2, “Imaging agents” (GE Healthcare Limited, priority 2006, dated 2012).
Bridges are numbered along the chain shown (N, C = ends). Where no end group is shown, it is not given here. 99mTc‑Chelate II = tetraamine chelate labelled with 99mTc, on the N-terminus

Columns and labels:
[1] = biological target: collagen type I (Homo sapiens, UniProt P02452+P08123); assay: In vitro binding to collagen type I coated plate
Procedure: A Maxisorp plate was incubated overnight at 4° C. with 50 μL or 100 μL 0.1 mg/mL collagen type I. All solutions were removed from the wells using a pipette. Wells were washed twice with 200 μL PBS, and then incubated with 150 μL PBS containing 0.1% BSA for 30 minutes at room temperature. Wells were washed five times with 200 μL PBS, and then 90 μL PBS was added to each well. 10 μL of neat (and two-fold serially diluted in PBS) Imaging Agent 1 was added to the wells in quadruplicate. The plate was sealed and incubated for 1 hour at 37° C.
The wells were washed seven times with ice-cold PBS (200 μL); and then the wells were transferred to a glass vial and counted (measured) for ^99mTc-activity using a Wallac counter for a 60 s count for each sample.
FIG. 1 illustrates binding of Imaging Agent 1 to collagen type I coated wells from one experiment.

[2] = biological target: collagen type I; assay: saturation binding of 99mTc-labelled peptide to collagen type I coated Maxisorp wells, one-site hyperbola fit

Chain of collagen type I (Homo sapiens, UniProt P02452+P08123) (P02452 162-1218 limits assumed): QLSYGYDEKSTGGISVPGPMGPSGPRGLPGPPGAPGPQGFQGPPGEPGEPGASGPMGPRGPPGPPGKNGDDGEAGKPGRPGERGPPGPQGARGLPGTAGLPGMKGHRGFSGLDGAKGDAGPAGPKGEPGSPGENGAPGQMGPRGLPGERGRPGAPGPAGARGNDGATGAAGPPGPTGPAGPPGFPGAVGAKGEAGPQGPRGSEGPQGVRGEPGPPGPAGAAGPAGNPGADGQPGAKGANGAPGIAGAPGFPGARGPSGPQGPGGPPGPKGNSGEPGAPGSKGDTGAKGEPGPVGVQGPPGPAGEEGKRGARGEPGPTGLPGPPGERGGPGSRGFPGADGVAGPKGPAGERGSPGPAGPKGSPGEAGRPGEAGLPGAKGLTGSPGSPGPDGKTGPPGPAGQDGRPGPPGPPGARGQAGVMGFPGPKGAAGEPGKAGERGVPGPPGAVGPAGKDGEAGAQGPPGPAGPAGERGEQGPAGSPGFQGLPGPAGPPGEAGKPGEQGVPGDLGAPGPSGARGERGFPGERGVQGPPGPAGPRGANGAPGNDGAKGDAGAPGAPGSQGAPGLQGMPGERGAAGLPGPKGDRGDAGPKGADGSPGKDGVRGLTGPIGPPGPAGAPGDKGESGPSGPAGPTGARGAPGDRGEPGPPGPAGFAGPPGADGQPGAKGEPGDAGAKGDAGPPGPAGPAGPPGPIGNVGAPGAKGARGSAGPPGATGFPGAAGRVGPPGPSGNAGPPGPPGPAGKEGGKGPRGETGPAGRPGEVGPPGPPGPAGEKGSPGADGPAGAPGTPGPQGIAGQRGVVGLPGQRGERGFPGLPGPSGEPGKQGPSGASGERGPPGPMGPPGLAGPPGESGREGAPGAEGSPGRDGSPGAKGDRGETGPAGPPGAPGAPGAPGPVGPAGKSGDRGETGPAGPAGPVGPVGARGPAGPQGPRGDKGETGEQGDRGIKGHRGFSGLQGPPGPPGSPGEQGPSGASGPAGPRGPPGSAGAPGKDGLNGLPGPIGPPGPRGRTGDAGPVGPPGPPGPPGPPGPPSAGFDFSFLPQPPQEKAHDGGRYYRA
Chain of collagen type I (Homo sapiens, UniProt P02452+P08123) (P08123 80-1119 limits assumed): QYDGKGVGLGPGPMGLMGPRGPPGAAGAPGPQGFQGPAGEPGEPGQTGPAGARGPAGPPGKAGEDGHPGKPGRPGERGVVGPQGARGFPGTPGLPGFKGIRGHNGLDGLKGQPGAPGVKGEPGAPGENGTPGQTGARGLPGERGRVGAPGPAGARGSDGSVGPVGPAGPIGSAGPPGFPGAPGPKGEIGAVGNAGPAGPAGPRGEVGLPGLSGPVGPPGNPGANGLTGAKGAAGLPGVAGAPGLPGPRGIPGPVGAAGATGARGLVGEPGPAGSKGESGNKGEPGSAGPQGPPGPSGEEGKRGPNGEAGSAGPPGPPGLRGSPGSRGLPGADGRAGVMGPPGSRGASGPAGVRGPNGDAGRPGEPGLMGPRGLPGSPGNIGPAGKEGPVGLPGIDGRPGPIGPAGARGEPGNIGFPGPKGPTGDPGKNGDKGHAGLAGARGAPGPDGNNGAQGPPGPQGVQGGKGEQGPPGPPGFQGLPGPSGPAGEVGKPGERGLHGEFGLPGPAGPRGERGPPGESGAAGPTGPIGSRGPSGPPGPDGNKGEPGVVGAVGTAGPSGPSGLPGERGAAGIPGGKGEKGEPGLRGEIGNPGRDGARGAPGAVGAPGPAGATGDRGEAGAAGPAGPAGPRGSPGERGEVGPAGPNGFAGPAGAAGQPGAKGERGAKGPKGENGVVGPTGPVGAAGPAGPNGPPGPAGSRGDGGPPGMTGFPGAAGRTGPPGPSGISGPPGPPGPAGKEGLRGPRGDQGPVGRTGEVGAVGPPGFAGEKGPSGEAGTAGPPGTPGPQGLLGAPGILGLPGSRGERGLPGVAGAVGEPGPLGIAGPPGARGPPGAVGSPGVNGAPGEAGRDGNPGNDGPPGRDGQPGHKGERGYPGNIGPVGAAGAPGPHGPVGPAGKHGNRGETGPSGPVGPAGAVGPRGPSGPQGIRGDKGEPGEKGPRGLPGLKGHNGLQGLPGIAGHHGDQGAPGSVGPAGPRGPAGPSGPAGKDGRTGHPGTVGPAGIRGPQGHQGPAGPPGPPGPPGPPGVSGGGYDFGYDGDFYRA

Molecule	binding to collagen in vitro [1]	Bmax [2] [attomoles]	Kd [2] [nM]
^123I-labelled KELNVLYT-NH2 (also: 123I-labelled) [Imaging Agent 35]	bind with high affinity to collagen in vitro	–	–
^123I-labelled Ac-CKELNVLYTC-NH2 (disulfide 1-10; also: 123I-labelled) [Imaging Agent 36]	bind with high affinity to collagen in vitro	–	–
^123I-labelled Ac-KELNLVYT-NH2 (also: 123I-labelled) [Imaging Agent 29]	bind with high affinity to collagen in vitro	–	–
{99mTc‑Chelate II}-ANAALKAGELYKCILY-NH2 (also: 99mTc complex) [Imaging Agent 1: [99mTc-Chelate II]-…-NH2]	–	1070	194
